Assay results reported in the DeepSol protein solubility set.

Assay: soluble on expression in E. coli; label from the status in PepcDB or PDB records

Sequence	soluble on expression in E. coli
QIDYRDVFIEFLTTFKGNNNQNKYIERINELVAYRKKSLIIEFSDVLSFNENLAYEIINNTKIILPILEGALYDHILQLDPTYQRDIEKVHVRIVGIPRVIELRKIRSTDIGKLITIDGILVKVTPVKERIYKATYKHIHPDCMQEFEWPEDEEMPEVLEMPTICPKCGKPGQFRLIPEKTKLIDWQKAVIQERPEEVPSGQLPRQLEIILEDDLVDSARPGDRVKVTGILDIKQDSPVKRGSRAVFDIYMKVSSIEVSQKVLDEVIISEEDEKKIKDLAKDPWIRDRIISSIAPSIYGHWELKEALALALFGGVPKVLEDTRIRGDIHILIIGDPGTAKSQMLQFISRVAPRAVYTTGKGSTAAGLTAAVVREKGTGEYYLEAGALVLADGGIAVIDEIDKMRDEDRVAIHEAMEQQTVSIAKAGIVAKLNARAAVIAAGNPKFGRYISERPVSDNINLPPTILSRFDLIFILKDQPGEQDRELANYILDVHSGKSTKNIIDIDTLRKYIAYARKYVTPKITSEAKNLITDFFVEMRKKSSETPDSPILITPRQLEALIRISEAYAKMALKAEVTREDAERAINIMRLFLESVG	soluble
MALRWGIVSVGLISSDFTAVLQTLPRSEHQVVAVAARDLSRAKEFAQKHDIPKAYGSYEELAKDPNVEVAYVGTQHPQHKAAVMLCLAAGKAVLCEKPMGVNAAEVREMVTEARSRGLFLMEAIWTRFFPASEALRSVLAQGTLGDLRVARAEFGKNLTHVPRAVDWAQAGGALLDLGIYCVQFISMVFGGQKPEKISVMGRRHETGVDDTVTVLLQYPGEVHGSFTCSITAQLSNTASVSGTKGMAQLLNPCWCPTELVVKGEHKEFLLPPVPKNCNFDNGAGMSYEAKHVRECLRKGLKESPVIPLVESELLADILEEVRRAIGVTFPQDKH	soluble
GMTQDNASGDQVSKQHKAFLRKLYLAHLMDDARHNLLSLGKLTGMPRRTLQDAIASFADIGIEVEFVQDGERHNAGYYRIRTWGPISSAWMDTHVDEVKSLLGVDDAVGQATAGNGA	soluble
QVQLQQSGSELMKPGASVQISCKATGYTFSDYWIEWVKQRPGHGLEWIGDILCGTGRTRYNEKLKAMATFTADTSSNTAFMQLSSLTSEDSAVYYCARSASYGDYADYWGHGTTLTVSSAKTTPPSVYPLAPGCGDTTGSSVTLGCLVKGYFPESVTVTWNSGSLSSSVHTFPALLQSGLYTMSSSVTVPSSTWPSQTVTCSVAHPASSTTVDKKLEPS	soluble
MGSDKIHHHHHHMNLWDKKAKTYARYQNTLNTIQKQTFEYLQNLKISFQDKSIIDIGCGTGVWTLHLAKEAKEILALDSANAMLEILQEDAKKLNLNNIKCKNLSFETWMQNNPNVKFDLAFLSMSPALQNEKDYTNFLNLAKIKIYLGWADYRKSDFLDPIFKYFNTEFKGFYKKDLENYLLEKNIFFHKIVFDETRKVQRTKEEAIENALWHLSMNKITASKETVSSFVENNITETIESKIKLLIINNL	not soluble
MGSDKIHHHHHHLGDHTLNQVTDTPLSQQHITQHTQVAPSRLAAAGLSASIMLLKRILKPFEHVQRHRHSWGQVIYASQGVLSVITPAGRYIVPPEQAVWVPPFVDHEVIALSQVQLSSLYLDDTQIGGFPPCCTCLNVKPVLQLLLQEVNAFMKSEAGLIDPDFKDSVMRLLMVIRDFMVLAPKVALDLPYPKDKKLLRITEALLADPSEQRTLVDWQREVGASARTLARLFKQQTGLSYSQWLQRLRLQVAIQMLSRGESVLTTALSLGYASGSAFGYMFRQLMGVAPSQYLLAQSTLPKVQCQK	not soluble
MTLPSSCAPLTGISRARLPAWALPDGWPTQANGEPLLADLAFRDGRIAALTPTDQPTPGLWDLAGALTLPGLVEPHAHLDKTFTIERCRPAQAGLLPAIHAMHEDRRHWSRADIQRRASAALARAAANGVTHLRSHIDWFNADAPDAWQEIARLDTVGITLERVALVPLPLFRELAQAEAIARTVANSGERCLLGGFIHSSNWDATAMENLLYSAARWDLDLDLHIDEELSEVSQGLTWLADHLSRHPFPGHICCSHGCALAAGSDEQAAPILRQLAAHGVTLIALPMTNLLLQDATFGRTPRQRGITLLHEAQAAGVATLLGCDNVQDAFCPAGSYDPLDTLACGLFSAQLSDLFDQQSRLICDRAALTGSPADAAPFAVGAAASVVIFPGSDRFTWPLNSAARLVVNHGRLTHRRVWQEEMAHES	not soluble
MGHHHHHHSHELIREVEMGPFKHTVDDGLDIRKAAFECMYTLLDSCLDRLDIFEFLNHVEDGLKDHYDIKMLTFLMLVRLSTLCPSAVLQRLDRLVEPLRATCTTKVKANSVKQEFEKQDELKRSAMRAVAALLTIPEAEKSPLMSEFQSQISSNPELAAIFESIQKDSSSTNLESMDTS	not soluble
MKKVELLAPAGNLEKLKMAVLYGADAVYLGGEEFSLRAYAENFTLDELKAGVEFAHSKGKKVYVTINIFPHNDDLKKIPEYIKEVAGIGVDAIILSDPGILSIVKEIAPDMEIHLSTQANNTNFMSARFWHNHGVKRIILARELSLEEIREIREKTPDSLELEVFVHGAMCISYSGRCLLSNYMAGRDSNRGLCAHPCRWKYYLMEEKRPGEYYPVYENERGTFIFNSRDLCMIEHIPELVESGVSSFKIEGRMKSSFYVATVVKAYREAIDAYYEDKDNYKFDPRLLEEVCKVSHREFTTGFFFNKPGPKDQIYATSSYIREYDFVGVVQKYDKATKIATVEQRNRMYKGEEIEVVNPKGNFFVQKIEWMKNADGEDIDVAPHPQMTVYMPMKEDVEEFAMLRRKSSPNK	soluble
MPVRASIEPLTWENAFFGVNSAIVRITSEAPLLTPDALAPWSRVQAKIAASNTGELDALQQLGFSLVEGEVDLALPVNNVSDSGAVVAQETDIPALRQLASAAFAQSRFRAPWYAPDASGRFYAQWIENAVRGTFDHQCLILRAASGDIRGYVSLRELNATDARIGLLAGRGAGAELMQTALNWAYARGKTTLRVATQMGNTAALKRYIQSGANVESTAYWLYR	soluble
MLLKTIYCKVEEEKKKLFSNAQEKWSDIRHLDGFHGQFGGWYEDEACVFTLWEDRSTYQSFMNGAHDTIYLNSNQEDTFLSCEIELFQTLYDITDTHLKDVVTEGSFVRVAICDVKVEKEKYFLQKQETIWNKGMEKAKGMLGGVVGKSLKNENRYIVLTYWKDEQTHQHYVEEIFPDLYKLANIHEDIEEIKGKQAVCKEEWLVY	not soluble
GIIEAHCHVGIQEEKRGFEGNDCNEMTNPVTPYLRALDGINPMDSAFYTALTAGITGIMVGPGSANVVGGQWMFLKTYGRAIDKMVVLQPSAMKIAFGENPKANYDKKNMMPSTRIAIAAMLREELFEAQQYYEKRKNAEKSGDSFNKEFRKECWVPVFDKKIPLKAHVHRADDILTAIRIAKEFNLNLTLDHCTEGHLVAKEIKESGFPAIVGPTLTSRNKIETQYADFKTAGILHNEGVKVAITTDHPVTRIQDLLICAGLAAKEGLGIEEGLKAITINPAEICNVANRVGSIEVNKDADIAIFDGNPMETFTKTMYTIINGEIVY	not soluble
MGSDKIHHHHHHMKIGVNSYIVREMTGRGFSLDELNVDFVELGFDDAEIIKNDGEINMKILKDLSGLGIEFTIHAPTSDGKNFPIDFGEYFPIDLGTYRKTPIIKRMKKIIKVAEYLDASVIVVHGGDIKESYTKAYVNTLRNLRELKPITEDSGVKIVVENLFEGRIGALPHEVLSFAKEGFEVCFDIGHAFLTAIRTGLRVDEFEMLFPYTTHLHLHDNNGFRDEHKPIGEGIIGFSYVERVLELTNPERAVLEIRRYNKENSVLLNVEVLQEISRDFSQMKRLTEVVEP	not soluble
MGSDKIHHHHHHGCEKEKSHTVLELFSESQSLSPKKDFYVNEDSIAIIEGLSCDGKNLIVNDYHSGCCYTLFDKKSGEYIARFGTIGQGPAELPSPCYGYLTESDFTVFDDQTRIVMKYSLDSLRNSRKKDGSPVRLAQYKIPEAQISKLIAIDDTTFLCAGTYKSRYQYLLFNKNDSVLDYGVDVYNAADSAFQTYTRYLSNQGNLVMNPEKHTFAGSINFSSNIDFFEIVNNKIELIKSLRLGDPINKPVNEEGIYYVDLTENTQTGYIDLSATSKYVYALYSDKKMYENNRKSDTVLVFDWDGNPIKKYSLDTDAYYIAVDSTQQSLFAAVKNSSSGWKIICYALD	not soluble
KLLAITSCPNGIAHTYMAAENLQKAADRLGVSIKVETQGGIGVENKLTEEEIREADAIIIAADRSVNKDRFIGKKLLSVGVQDGIRKPEELIQKALNGDIPVY	soluble
MGSDKIHHHHHHMGCEIDRDASGLHSLQGLAGRDVSVAAGAKVGWSFMGTGTIATELVVEAIRSVGHSPLWVVSRSKRDADHFAEDLGIPHSTTELGPVLQDPSVGFAYISASLKRRPHYITAAAGAGKHILCDGPISCTSKTASALVELCRGARASLVVNQRLRASTIHQTMRRLVRDGDIGAVQSIVLIRGGPYQAPPNRSARDFNDGSGIYLDVSVENIDLARFLTGAEPVEATALITSEKMVPSQATYILRLSDGSLFQAHESFRTADIESMVLVAGDRGALIAQGTLNGRTSGTLMRRADGRNEAVPVRDHDVHLATVREFANTRGQTPSWLSQGTDSVIALRTVEAVAMSAKKRRTVPIQG	not soluble
DMPRPTGLAADIRWTAYGVPHIRAKDERGLGYGIGYAYARDNACLLAEEIVTARGERARYFGSEGKSSAELDNLPSDIFYAWLNQPEALQAFWQAQTPAVRQLLEGYAAGFNRFLREADGKTTSCLGQPWLRAIATDDLLRLTRRLLVEGGVGQFADALVAAAPPGAEKV	soluble
MGSDKIHHHHHHMTVLHSVDFFPSGKAPVAIEPRLPQAAFPEHHHDFHEIVIVEHGTGIHVFNGQPYTISGGTVCFVRDHDRHLYEHTDNLCLTNVLWRSPDAFQFLAGLDQLLPQEQDGYYPSHWRVNQSVLQQVRQLVGLMERAGDGMDAPAVANREILFMQLLVLLRRSSLMEGATNNDAKLNQLMAWLEDHFAEEVCWEAVAEQFSLSLRTLHRQLKQHTGLTPQRYLNRLRLIKARHLLRHSDHSVTEIAYRCGFGDSNHFSTLFRREFNWSPRDIRQGRDAIIQ	not soluble
MCMTNSMSDALKTLEVFRPEVEEIDEREVKLSVAPDRVIAVLETLKSLGYSHLSLMTCIDWIEDSQFELVYILFSWKDGGKFIVTTRIDRNNPQFVTVKEIWPVARFYEREIHEFFGVKFSGNEDMKPLFLELWDDKPPLRKDFDPLEYSRRKFPGREYQKDVIDEAKKIFRGEING	soluble
AIGRYTPADSTQELRDAARRLLPSSSLDKDLERLLRTWHKGYSTKTKRGERPCINSDTGPYTSDSVYIRRLSALPSAVPIQFNPAVKQCIKLYTEERRRLVRYMLSLADLYFPQIEETLDRHNLPIELKYLTIV	not soluble
MSDSQINSRTTIDEYLSRADWRVNANANQDYSLGGMILNAAGKVTANYWLDQVFSPAASAAHREGSIHIHDLDMLSGYCAGWSLRQLLEEGFGGVPGTISSRPPKHFSSACGQIVNFLGTLQNEWAGAQAFSSFDTYMAPFVRLDNLSYDEIVQDMQEFIFNLNVPSRWGTQTPFTNLTFDWTCPADLKDSVPFIGEEPVDFTYGELQEEMDLINRAFIQVMSAGDADGRPFTFPIPTYNITKDFDWDSPNTEALFTMTAKYGLPYFQNFINSDLDPGMIRSMCCRLQLDLRELLKRGNGLFGSAELTGSIGVVTLNCARLGYLYAGDEQALLGAVDELIELGIDTLERRRDFVATHMRQGLYPYSARWLPSLDNHFSTIGVNGCNEMIRNFTHDAYNLTDPQGHAQVARLLDHINARLVQAQERTGHLFNLEATPAEGTTYRLAKEDLKRYPDMLHAGTPEEPYYTNSSQLPVSHTPDPFEALALQEDLQSKYTGGTVLHLYMGAAMSDGKACAALVRRALTNFHLPYITITPTFSICPDHGYISGEHPECPQCGATTEMWTRVMGYFRPVQSFNTGKKGEFHERTYFAEALI	not soluble
